Assay results published in PMC9122904, “Insights into the client protein release mechanism of the ATP-independent chaperone Spy” (Nature Communications, 2022).

Key:
Experiment in all cases: BLI; Octet RED96; client biotinylated and loaded on streptavidin sensors; Spy or Spy variant in solution at 0.25, 0.5, 1, 1.5 and 2 μM; 40 mM HEPES, 150 mM NaCl, pH 7.5; Kd calculated as koff/kon
Settings in all cases: both partners purified
[1] = biological target: T1, Spy D26K R43D (UniProt P77754 24-161, D26K | R43D)
T1 construct: source: E. coli BL21 (DE3), purified (Ni-NTA, cation exchange, SEC); not shown: His6, N-terminal, cleaved; SUMO, N-terminal, cleaved
T1 sequence (looked up): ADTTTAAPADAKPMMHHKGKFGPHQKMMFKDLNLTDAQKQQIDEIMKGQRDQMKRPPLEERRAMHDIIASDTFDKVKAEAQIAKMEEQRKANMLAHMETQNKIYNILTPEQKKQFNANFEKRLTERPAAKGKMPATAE
Outline: (§1)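 Client proteins were biotinylated with EZ-link NHS-biotin at a 1:1 molar ratio, loaded onto streptavidin sensors, and measured by biolayer interferometry on an Octet RED96. The loaded sensors were dipped into 40 mM HEPES, 150 mM NaCl, pH 7.5 holding the analyte protein at 0.25, 0.5, 1, 1.5 or 2 μM, then moved to buffer without it. Fitting the wavelength-shift association and dissociation curves in SigmaPlot 12.0 gave the observed association rate and koff, kon was taken from the observed rate plotted against analyte concentration, and Kd was calculated as koff/kon.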

[2] = biological target: T2, Spy_(D26K K54D R55D) (UniProt P77754 24-161, D26K | K54D | R55D)
T2 construct: source: E. coli BL21 (DE3), purified (Ni-NTA, cation exchange, SEC); not shown: His6, N-terminal, cleaved; SUMO, N-terminal, cleaved
T2 sequence (looked up): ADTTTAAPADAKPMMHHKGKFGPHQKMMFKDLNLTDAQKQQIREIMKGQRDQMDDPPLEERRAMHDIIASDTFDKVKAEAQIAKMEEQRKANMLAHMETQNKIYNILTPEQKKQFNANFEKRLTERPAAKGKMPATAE
Outline: as §1

[3] = biological target: T3, Spy_(D26K R61D R62D) (UniProt P77754 24-161, D26K | R61D | R62D)
T3 construct: source: E. coli BL21 (DE3), purified (Ni-NTA, cation exchange, SEC); not shown: His6, N-terminal, cleaved; SUMO, N-terminal, cleaved
T3 sequence (looked up): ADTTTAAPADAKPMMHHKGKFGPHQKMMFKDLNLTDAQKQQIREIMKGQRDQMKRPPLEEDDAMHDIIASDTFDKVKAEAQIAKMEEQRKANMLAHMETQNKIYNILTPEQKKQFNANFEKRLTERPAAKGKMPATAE
Outline: as §1

[4] = biological target: T4, Spy D26K H65D (UniProt P77754 24-161, D26K | H65D)
T4 construct: source: E. coli BL21 (DE3), purified (Ni-NTA, cation exchange, SEC); not shown: His6, N-terminal, cleaved; SUMO, N-terminal, cleaved
T4 sequence (looked up): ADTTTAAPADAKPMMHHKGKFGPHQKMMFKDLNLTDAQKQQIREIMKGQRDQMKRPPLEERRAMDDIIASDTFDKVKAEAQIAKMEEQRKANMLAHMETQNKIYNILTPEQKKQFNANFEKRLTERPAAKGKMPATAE
Outline: as §1

[5] = biological target: T5, Spy_(K75D) (UniProt P77754 24-161, K75D)
T5 construct: also called control protein; source: E. coli BL21 (DE3), purified (Ni-NTA, cation exchange, SEC); not shown: His6, N-terminal, cleaved; SUMO, N-terminal, cleaved
T5 sequence (looked up): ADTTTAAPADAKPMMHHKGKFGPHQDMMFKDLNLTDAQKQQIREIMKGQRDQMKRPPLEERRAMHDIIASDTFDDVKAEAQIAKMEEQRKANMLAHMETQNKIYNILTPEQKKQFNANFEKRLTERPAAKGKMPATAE
Outline: as §1

[6] = biological target: T6, Spy D26K K75D (UniProt P77754 24-161, D26K | K75D)
T6 construct: source: E. coli BL21 (DE3), purified (Ni-NTA, cation exchange, SEC); not shown: His6, N-terminal, cleaved; SUMO, N-terminal, cleaved
T6 sequence (looked up): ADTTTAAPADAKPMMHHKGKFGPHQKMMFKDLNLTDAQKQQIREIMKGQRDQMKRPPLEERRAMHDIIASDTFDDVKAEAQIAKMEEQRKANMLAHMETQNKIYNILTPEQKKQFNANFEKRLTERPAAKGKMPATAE
Outline: as §1

[7] = biological target: T7, Spy_(R89D) (UniProt P77754 24-161, R89D)
T7 construct: source: E. coli BL21 (DE3), purified (Ni-NTA, cation exchange, SEC); not shown: His6, N-terminal, cleaved; SUMO, N-terminal, cleaved
T7 sequence (looked up): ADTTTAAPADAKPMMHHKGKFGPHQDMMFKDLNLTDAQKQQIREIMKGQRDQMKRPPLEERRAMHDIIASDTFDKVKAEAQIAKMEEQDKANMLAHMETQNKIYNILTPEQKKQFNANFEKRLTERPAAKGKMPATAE
Outline: as §1

[8] = biological target: T8, Spy D26K H96D (UniProt P77754 24-161, D26K | H96D)
T8 construct: source: E. coli BL21 (DE3), purified (Ni-NTA, cation exchange, SEC); not shown: His6, N-terminal, cleaved; SUMO, N-terminal, cleaved
T8 sequence (looked up): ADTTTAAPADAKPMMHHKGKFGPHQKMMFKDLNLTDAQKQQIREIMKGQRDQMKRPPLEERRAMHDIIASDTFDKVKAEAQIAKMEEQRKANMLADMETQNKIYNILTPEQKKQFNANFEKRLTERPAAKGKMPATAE
Outline: as §1

B1: Im7 H40W L53A I54A (natural protein)
chain: MELKNSISDYTEAEFVQLLKEIEKENVAATDDVLDVLLEWFVKITEHPDGTDAAYYPSDNRDDSPEGIVKEIKEWRAANGKPGFKQG
modifications: biotin (EZ-link NHS-biotin, 1:1 molar ratio of biotin to protein)
notes: Im7 (colicin E7 immunity protein) with H40W L53A I54A; Spy was made with an N-terminal His6-SUMO tag that was cleaved; also called Im7AAW; partially folded client; source: purified by a similar procedure to Spy
koff [1]: 0.202 s⁻¹ | koff [2]: 0.425 s⁻¹ | koff [3]: 0.475 s⁻¹ | koff [4]: 0.284 s⁻¹ | koff [5]: 0.183 s⁻¹ | koff [6]: 0.0595 s⁻¹ | koff [7]: 0.105 s⁻¹ | koff [8]: 0.172 s⁻¹
